This note sets out measurements from US20150344570A1 (published 2015).

Assay [1] has as its target T1, FcγRIIa R (extracellular domain, His tag at the C terminus) (human, UniProt P12318 34-217).
T1 construct: extracellular domain; Soluble analyte in Biacore; also called FcgRIIa R type; 2aR
T1 sequence (looked up): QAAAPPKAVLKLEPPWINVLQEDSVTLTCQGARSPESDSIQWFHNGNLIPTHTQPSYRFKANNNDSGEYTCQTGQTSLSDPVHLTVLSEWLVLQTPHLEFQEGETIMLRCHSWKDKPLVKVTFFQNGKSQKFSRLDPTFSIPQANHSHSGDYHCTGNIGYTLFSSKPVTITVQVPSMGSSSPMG
Put plainly: SPR (Biacore), relative binding, control GpH7-A5/GpH7-B3/GpL16-k0 = 100. The method, then: (§1) Analysis of interaction between objective antibody and the FcγR was carried out using Biacore T100 (GE Healthcare). HBS-EP+ (GE Healthcare) was used as the running buffer, and the measurement temperature was set to 25° C. Chips produced by immobilizing the antigen peptide by the amine coupling method to a Series S Sencor Chip CM5 (GE Healthcare), or alternatively, chips produced by allowing preliminarily biotinylated antigen peptides to interact with and immobilize onto a Series S Sensor Chip SA (certified) (GE Healthcare) were used. Antibodies of interest were captured onto an antigen peptide-immobilized chip, and allowed to interact to each FcγR diluted with running buffer. To regenerate and repeatedly use the chip, the antibodies captured on the chip were washed off by reacting 10 mM glycine-HCl, pH 1.5.
For orientation: In SPR one partner is held on a chip, and binding of the other changes the refractive index at the surface.

The target in assay [2] is T2, FcγRIIa R (human, UniProt P12318 34-217).
T2 construct: extracellular domain; Soluble His-tagged extracellular domain expressed in FreeStyle293 cells; analyte in Biacore; also called FcgRIIa R; FcgRIIaR; not shown: His tag attached to the C terminus
T2 sequence (looked up): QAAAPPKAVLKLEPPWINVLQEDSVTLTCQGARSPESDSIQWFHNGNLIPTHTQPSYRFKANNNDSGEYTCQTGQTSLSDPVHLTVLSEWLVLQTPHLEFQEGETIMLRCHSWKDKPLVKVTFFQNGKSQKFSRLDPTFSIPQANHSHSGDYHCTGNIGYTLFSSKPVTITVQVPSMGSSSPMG
As to the kind of experiment: SPR (Biacore), antibody captured via antigen peptide, FcγR as analyte. The protocol:
(§2) The heterodimerized antibodies He Abs in which one of the H chains was introduced with an alteration were assayed for their binding activities to each activating FcγR and inhibitory FcγR according to the method described in Example 4. […] The activating FcγRs in FIGS. 26, 27, 28, and 29 are FcγRIa, FcγRIIa (R), FcγRIIa (H), and FcγRIIIa, respectively.
as §1

Assay [3] has as its target T3, FcγRIIb (human, UniProt P31994 43-217).
T3 construct: extracellular domain; Soluble His-tagged extracellular domain expressed in FreeStyle293 cells; analyte in Biacore; also called FcgRIIb; 2b; not shown: His tag attached to the C terminus
T3 sequence (looked up): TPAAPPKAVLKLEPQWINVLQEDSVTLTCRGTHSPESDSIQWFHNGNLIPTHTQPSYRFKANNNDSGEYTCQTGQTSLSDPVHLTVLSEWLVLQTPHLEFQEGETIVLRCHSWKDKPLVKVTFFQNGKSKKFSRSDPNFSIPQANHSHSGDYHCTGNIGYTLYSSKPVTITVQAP
The assay is described as above. The protocol: as §2, §1

Assay [4] has as its target T2, FcγRIIa R. Put plainly: ratio of He/Con_2aR to He/Con_2b (binding to FcγRIIb as reference); SPR.

B1: GpH7-A5/GpH7-B3 variant T335_06M/GpL16-k0 (antibody, human IgG1, kappa)
heavy 1: not shown
heavy 2: not shown
light: DIVMTQSPLSLPVTPGEPASISCQASESLVHSNRNTYLHWYLQKPGQSPQLLIYKVSNRFSGVPDRFSGSGSGTDFTLKISRVEAEDVGVYYCSQNTHVPPTFGQGTKVEIERTVAAPSVFIFPPSDEQLKSGTASVVCLLNNFYPREAKVQWKVDNALQSGNSQESVTEQDSKDSTYSLSSTLTLSKADYEKHKVYACEVTHQGLSSPVTKSFNRGEC
notes: heterodimerized; also called He Ab
Regarding B1, the He/Con_2aR in assay [1] was 105 % of control.

B2: GpH7-A5/GpH7-B3 variant T335_16H/GpL16-k0 (antibody, human IgG1, kappa)
heavy 1: not shown
heavy 2: not shown
light: DIVMTQSPLSLPVTPGEPASISCQASESLVHSNRNTYLHWYLQKPGQSPQLLIYKVSNRFSGVPDRFSGSGSGTDFTLKISRVEAEDVGVYYCSQNTHVPPTFGQGTKVEIERTVAAPSVFIFPPSDEQLKSGTASVVCLLNNFYPREAKVQWKVDNALQSGNSQESVTEQDSKDSTYSLSSTLTLSKADYEKHKVYACEVTHQGLSSPVTKSFNRGEC
notes: as for B1
As for B2, the He/Con_2aR in assay [1] is 108 % of control.

B3: GpH7-A5/GpH7-B3 variant T335_04F/GpL16-k0 (antibody, human IgG1, kappa)
heavy 1: not shown
heavy 2: not shown
light: DIVMTQSPLSLPVTPGEPASISCQASESLVHSNRNTYLHWYLQKPGQSPQLLIYKVSNRFSGVPDRFSGSGSGTDFTLKISRVEAEDVGVYYCSQNTHVPPTFGQGTKVEIERTVAAPSVFIFPPSDEQLKSGTASVVCLLNNFYPREAKVQWKVDNALQSGNSQESVTEQDSKDSTYSLSSTLTLSKADYEKHKVYACEVTHQGLSSPVTKSFNRGEC
notes: as for B1
Turning to B3, the He/Con_2aR in assay [1] is 108 % of control.

B4: GpH7-A5/GpH7-B3 variant Y300_04F/GpL16-k0 (antibody, human IgG1, kappa)
heavy 1: not shown
heavy 2: not shown
light: DIVMTQSPLSLPVTPGEPASISCQASESLVHSNRNTYLHWYLQKPGQSPQLLIYKVSNRFSGVPDRFSGSGSGTDFTLKISRVEAEDVGVYYCSQNTHVPPTFGQGTKVEIERTVAAPSVFIFPPSDEQLKSGTASVVCLLNNFYPREAKVQWKVDNALQSGNSQESVTEQDSKDSTYSLSSTLTLSKADYEKHKVYACEVTHQGLSSPVTKSFNRGEC
notes: as for B1
For B4, the He/Con_2aR in assay [1] was 108 % of control.

B5: GpH7-A5/GpH7-B3 variant V266_06M/GpL16-k0 (antibody, human IgG1, kappa)
heavy 1: not shown
heavy 2: not shown
light: DIVMTQSPLSLPVTPGEPASISCQASESLVHSNRNTYLHWYLQKPGQSPQLLIYKVSNRFSGVPDRFSGSGSGTDFTLKISRVEAEDVGVYYCSQNTHVPPTFGQGTKVEIERTVAAPSVFIFPPSDEQLKSGTASVVCLLNNFYPREAKVQWKVDNALQSGNSQESVTEQDSKDSTYSLSSTLTLSKADYEKHKVYACEVTHQGLSSPVTKSFNRGEC
notes: as for B1
For B5, in assay [1], the He/Con_2aR was 150 % of control.

B6: GpH7-A5/GpH7-B3 variant T335_09D/GpL16-k0 (antibody, human IgG1, kappa)
heavy 1: not shown
heavy 2: not shown
light: DIVMTQSPLSLPVTPGEPASISCQASESLVHSNRNTYLHWYLQKPGQSPQLLIYKVSNRFSGVPDRFSGSGSGTDFTLKISRVEAEDVGVYYCSQNTHVPPTFGQGTKVEIERTVAAPSVFIFPPSDEQLKSGTASVVCLLNNFYPREAKVQWKVDNALQSGNSQESVTEQDSKDSTYSLSSTLTLSKADYEKHKVYACEVTHQGLSSPVTKSFNRGEC
notes: as for B1
As to B6, in assay [1], the He/Con_2aR was 110 % of control.

B7: GpH7-A5/GpH7-B3 variant A330_07I/GpL16-k0 (antibody, human IgG1, kappa)
heavy 1: not shown
heavy 2: not shown
light: DIVMTQSPLSLPVTPGEPASISCQASESLVHSNRNTYLHWYLQKPGQSPQLLIYKVSNRFSGVPDRFSGSGSGTDFTLKISRVEAEDVGVYYCSQNTHVPPTFGQGTKVEIERTVAAPSVFIFPPSDEQLKSGTASVVCLLNNFYPREAKVQWKVDNALQSGNSQESVTEQDSKDSTYSLSSTLTLSKADYEKHKVYACEVTHQGLSSPVTKSFNRGEC
notes: Heterodimerized anti-glypican-3 IgG1 antibody; alteration only in the GpH7-B3 H chain; position in EU numbering; also called He Ab
With B7, the “He/Con_2aR (IIaR binding relative to GpH7-A5/GpH7-B3/GpL16-k0)” value in assay [2] is 85.6 % of control (control = 100). Besides, the “He/Con_2b (IIb binding relative to GpH7-A5/GpH7-B3/GpL16-k0)” value in assay [3] was 67.1 % of control (control = 100). Moreover, the “He_2aR/2b (IIaR/IIb)” value in assay [4] was found to be 1.27.

B8: GpH7-A5/GpH7-B3 variant Y296_20W/GpL16-k0 (antibody, human IgG1, kappa)
heavy 1: not shown
heavy 2: not shown
light: DIVMTQSPLSLPVTPGEPASISCQASESLVHSNRNTYLHWYLQKPGQSPQLLIYKVSNRFSGVPDRFSGSGSGTDFTLKISRVEAEDVGVYYCSQNTHVPPTFGQGTKVEIERTVAAPSVFIFPPSDEQLKSGTASVVCLLNNFYPREAKVQWKVDNALQSGNSQESVTEQDSKDSTYSLSSTLTLSKADYEKHKVYACEVTHQGLSSPVTKSFNRGEC
notes: as for B1
Turning to B8, in assay [1], the He/Con_2aR was 110 % of control.
